Experimental data reported in the nanobody polyreactivity screen of Harvey et al. (2022).

assay: yeast display, Sf9 membrane polyspecificity reagent, FACS + sequencing; frameworks hold sequencing errors
Summary of the method: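 In a synthetic yeast display library (Saccharomyces cerevisiae BJ5465), nanobody expression was induced with galactose for 36–48 hours. FACS gates were set low and high (top ~1%) using anti-HA fluorescence for expression and streptavidin fluorescence for binding of the Sf9 membrane reagent. Each polyreactivity label is drawn from the gate of origin.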

Sequence	polyreactivity (PSR sort gate)
QVQLVESGGGLVQAGGSLRLSCAASGSTFVKNVMGWYRQAPGKERELVAGITRGGSTYYADSVKGRFTISRDNAKNTVYLQMNSLKPEDTAVYYCAAARWSQYRTWMNYWGQGTQVTVSS	high polyreactivity
QVQLVESGGGLVQAGGSLRLSCAASGSTFVKYVMGWYRQAPGKERELVAAISWSGGSTYYADSVKGRFTISRDNAKNTVYLQMNSLKPEDTAVYYCAAVNWYDSYAKYYWGQGTQVTVSS	high polyreactivity
QVQLVESGGGLVQAGGSLRLSCAASGSTFVLYAMGWYIQAPGKERELVAAIDSSGGSTYYADSVKGRFTISRDNAKNTVYVQMNSLKPEDTAVYYCAARFKGLLGYWGQGTQVTVSS	high polyreactivity
QVQLVESGGGLVQAGGSLRLSCAASGSTFVLYAMGWYRQAPGKERELVATITTSGARTHYADSVKGRFTISRDNAKNTVYLQINSLKPEDTAVYYCAAESYWTGYDYGGQGTQVTVSS	low polyreactivity
QVQLVESGGGLVQAGGSLRLSCAASGSTFVNNAMGWYRQAPGKERELGASITVGGSTYYADSVKGRFTISRDNAKNTVYLQMNSLKPEDTAVYYCAAADYRFWSRYDYWGQGTQVTVSS	low polyreactivity
QVQLVESGGGLVQAGGSLRLSCAASGSTFVNYAMGWYRQAPGKERELVAAITRGGRTYYADSVKGRFTISRDNAKNTVYLQMNSLKPEDTAVYYCAARRSYNPAFGYWGQGTQVTVSS	high polyreactivity
QVQLVESGGGLVQAGGSLRLSCAASGSTFVNYVMGWYRPAPGKERELVAAISRRGTSTRYADSVKGRFTISRDNAKNTVYLQMNSLKPEDTAVYYCAATRYVGVTGYGYWGQGTQVTVSS	high polyreactivity
QVQLVESGGGLVQAGGSLRLSCAASGSTFVPNAMGWYRQAPGKERELVAAISYSGGTTYYADSVKGRFTISRDNAKNTVYLQMNSLKPEDTEVYYCAARSKGAAAILDDYWGQGTQVTVSS	low polyreactivity
QVQLVESGGGLVQAGGSLRLSCAASGSTFVPNAMGWYRQSPGKERELVAAISRSAGSTYYADSVKGRFTISRDNAKNTVYLQMNSLKPEDTAVYYCAADSLTYIAYDYWGQGTQVTVSS	high polyreactivity
QVQLVESGGGLVQAGGSLRLSCAASGSTFVPYAIGWYRQAPGKERELVASITYSGGSTSYADSVKGRFTISRDNAKNTVYLQMNSLKPEDTAVYYCAAVPWVVYSGYDYWGQGTQVTVSS	low polyreactivity
QVQLVESGGGLVQAGGSLRLSCAASGSTFVPYAMGWYRQAPGKERELVAAITTSGGNTYYADSVKGRFTISRDNAKNTVYLQMNSLKPEDTAVYYCAADTYRRFDYWGQGTQVTVSS	low polyreactivity
QVQLVESGGGLVQAGGSLRLSCAASGSTFVPYTMGWYRQAPGKERELVAAISGSGGTDYADSVKGRFTISRDNAKNTVYLQMNSLKPEDTAVYYCAADPQYWRFYSYGGGDDYWGQGTQVTVSS	low polyreactivity
QVQLVESGGGLVQAGGSLRLSCAASGSTFVQNAMGWYRQAPGKERELVAAISRTGGSTYYADSVKGRFTISRDNAKNTVYLQMKSLIPEDTAVYYCATRPPHYSWPKIIEFGSWGQGSQVTVSS	high polyreactivity
QVQLVESGGGLVQAGGSLRLSCAASGSTFVQYAKGWSRQAPGKERELVATISKSGGDTYADSVKGRFTISRDNAKNTVYLQMNSLKPEDTAVYYCAAGYTWVSHRYRYAYNYWGQGTQVTVSS	low polyreactivity
QVQLVESGGGLVQAGGSLRLSCAASGSTFVQYAMGWYRQAPGKERELVAAITSGGRTNYADSVKGRFTISRDNAKNTVYLQMNSLKPEDTAVYYCAARYGSNSPRGYEYYYWGQGTQVTVSS	low polyreactivity
QVQLVESGGGLVQAGGSLRLSCAASGSTFVQYDMGWYRQAPGKERELVAGITRTGSTYADSVKGRFTISRDNAKNTVYLQMNSLKPEDTADYYCAVYVSGYAQTSRYDYWGQGTQVTVSS	low polyreactivity
QVQLVESGGGLVQAGGSLRLSCAASGSTFVRNAMGWYRQAPGKERELVAGISTGDNTYYADSVKGRFTISRDNAKNTVYLQMNSLKPEDTAVYYCNADVYTEYDYWGQGTQVTVSS	low polyreactivity
QVQLVESGGGLVQAGGSLRLSCAASGSTFVRNAMGWYRQEPGKERELVANISSGGGTKYADSVKGRFTISRDNAQNTVYLQMNSLKPEDTAVYYCAKRTIYSGRFYYWGQGTQVTVSS	high polyreactivity
QVQLVESGGGLVQAGGSLRLSCAASGSTFVRNARGWYRQAPGKERELVAAISRSGGRTYYADSVKGRFTISRDNAKNTVYLQMNSLKPEDTAVYYCAADGKSGYDYWGQGTQVTVSS	high polyreactivity
QVQLVESGGGLVQAGGSLRLSCAASGSTFVRYAMGWYRLAPGKERELVAAIAKSGGSTYYADSVKGRFTISRDIAKNTVYLQMNSLKPEDTAVDYCNSDVYKNSKVRIMGYWGLGTQVTVSS	low polyreactivity
QVQLVESGGGLVQAGGSLRLSCAASGSTFVRYAMGWYRQAPGKERELVAAISKSGGSTYYADSVKGRFTISRDNAKNTVYLQMNSLKPEDTAVYFCNADVYKNSKFRIMGYWGQGTQVTVSS	low polyreactivity

Sequence	polyreactivity (PSR sort gate)
QVQLVESGGGLVQAGGSLRLSCAASGSTFVRYAMGWYRQAPGKERELVAAISNGGNTYYADSVKGRFTISHDNAKNTVYLQMNSLKPEDTAVYYCNKGYVYGHEYWGQGTQVTVSS	high polyreactivity
QVQLVESGGGLVQAGGSLRLSCAASGSTFVRYVMGWYRQAPGKERELVAAIRYRGGSTYYADSVKGRFTISRDNAKNTVYLQMNSLKPEDTAVYYCATDWRRYTKQYGYWGQGTQVSVSS	high polyreactivity
QVQLVESGGGLVQAGGSLRLSCAASGSTFVSNAMGWYRPAPGKERELVAAISSSGGRTSYADSVKGRFTISRDNAKNTVYLQMNSLKPEDTAVYYCAARFKSVDYVQYYYWGQGTQVTVSS	low polyreactivity
QVQLVESGGGLVQAGGSLRLSCAASGSTFVSNAMGWYRQAPGKERELVAGITFSGGSTYYADSVKGRFTISRDNAKNTVYLQMNSLKPEDTAVYYCAAEFHWWYAGYDYGYWGQGTQVTASS	low polyreactivity
QVQLVESGGGLVQAGGSLRLSCAASGSTFVSSAMGWYRQAPGKERELVARITWNGGNTYADSVKGRFTISRDNAKNTVYLQMNSLKPEDTAVYYCSTDYVVGFYYWGQGTQVTVSS	low polyreactivity
QVQLVESGGGLVQAGGSLRLSCAASGSTFVSYAMGWYRQAPGKEREFVAAITWSGGSTYYADSVKGRFTISRDNAKNTVYLQMNRLKPEDTAVYYFARPYRGSPRYYYWGQGTQVTVSS	high polyreactivity
QVQLVESGGGLVQAGGSLRLSCAASGSTFVTNAMGWYSQAPGKEREFVAAISNSSGSTYYADSVKGRFTISRDNAKNTVYLQMNSLKPEDTAVYYCNATPDDWLQEDYWGQGTQVTVSS	low polyreactivity
QVQLVESGGGLVQAGGSLRLSCAASGSTFVTYAMGWYRQAPGKERELVAAITTSGGSTYYADSVKGRFTISRANAMNTVYLQMNSLKPEDTAVYYCIAGFEYTQEYDYWGQGTQVTVSS	low polyreactivity
QVQLVESGGGLVQAGGSLRLSCAASGSTFVVNAMAWYRQAPGKERELVAVISYSGDSTYYADSVKGRFTISRDNAKNTVYLQMNSLKPEDSAVYYCNADYYDESNWGQGTQVTVSS	low polyreactivity
QVQLVESGGGLVQAGGSLRLSCAASGSTFVVNTMGWYRQAPGKERELVATISDIGSSTDYADSVKGRFTISRDNAKNTVYLQMNSLKPEDTAVYYCAASIDDIITDDFYWVSWAYYYWGQGTQVTVSS	low polyreactivity
QVQLVESGGGLVQAGGSLRLSCAASGSTFVVNVMGWYRQAPGNEMELVAAITYRSGSTYYADSVKGRFTISRDNEKNTVYLQMNSLNPEDSAVYYCAAGYYSRYYEAFEYYYWGQGTQVTVSS	high polyreactivity
QVQLVESGGGLVQAGGSLRLSCAASGSTFVVYAMGWSRQAPGKERELVAAISTSDTSTYYADSVKGRFTISRDNAKNTVYLQMNSLKPEDTAVYDCAADGTYVYINEYEYWGQGTQVTVSS	low polyreactivity
QVQLVESGGGLVQAGGSLRLSCAASGSTFVVYAMGWYRQAPGKERELVAAISYRAGITYYADSVKGRFTISRDNAKNTVYLQMNSLKPEDTAVYYWAADRYYGVGSGYWGQGTQVTVSS	high polyreactivity
QVQLVESGGGLVQAGGSLRLSCAASGSTFVVYAMGWYRQAPGKERELVAAITTSDDSTYYADSVKGRFTISRDNAKNTVYLQMNSLKPEDTAVYYCAATLRWQDGYWGQGTQVTVSS	low polyreactivity
QVQLVESGGGLVQAGGSLRLSCAASGSTFVVYAMGWYRQAPGKERELVASISSGDSTTYADSVKGRFTISRDNAKNTVYLQMNSLKPEDTAVYYCNADYAYYLDVYSPYDSWGQGTQVTVSS	low polyreactivity
QVQLVESGGGLVQAGGSLRLSCAASGSTFVWYAMGWYRQAPGKERELVAAISSGGSTNYADSVKGRFTISRDNAKNTVYLQMNSLKPEDTAVYYCAAKAYFSSYWRWRGAMDHWGQGTQVTVSS	low polyreactivity
QVQLVESGGGLVQAGGSLRLSCAASGSTFVYAMAWSRQAPGKERELVAAIRLRSGSTYYADSVKGRFTISRDNAKNTVYLQMNSLKPEDTAVYYCAAAIQSSKVSVKFGYWGQGTQVTVSS	high polyreactivity
QVQLVESGGGLVQAGGSLRLSCAASGSTFVYAMGWYRQAPGKERELVAAITTGDSTYYADSVKGRFTISRDNAKNTVYLQMNSLKPEDTAVYYCAAQWYTRYGEYGYWGQGTQVTVSS	low polyreactivity
QVQLVESGGGLVQAGGSLRLSCAASGSTFVYNAMGGYSQAPGKERELGASISRGGGITYYADSVKGRFTISRDNAKNTVYLQMNSLKPEDTAVYYCAKTKGYRGHYYYWGQGTQVTVSS	high polyreactivity
QVQLVESGGGLVQAGGSLRLSCAASGSTFVYNAMGWYRQAPGKERELVAAITVIGGRTYYADSVKGRFTISRDNAKNTVYLQMNSLKPEDTAVYYCNADATESIGYYDEYEYWGQGTQVTVSS	low polyreactivity
